Assay results published in US20060183161A1.

Target: IL-1 receptors on fibroblasts (human) (UniProt P14778)
Assay: cell-based or functional assay

Chain of UniProt P14778 (P14778 18-569): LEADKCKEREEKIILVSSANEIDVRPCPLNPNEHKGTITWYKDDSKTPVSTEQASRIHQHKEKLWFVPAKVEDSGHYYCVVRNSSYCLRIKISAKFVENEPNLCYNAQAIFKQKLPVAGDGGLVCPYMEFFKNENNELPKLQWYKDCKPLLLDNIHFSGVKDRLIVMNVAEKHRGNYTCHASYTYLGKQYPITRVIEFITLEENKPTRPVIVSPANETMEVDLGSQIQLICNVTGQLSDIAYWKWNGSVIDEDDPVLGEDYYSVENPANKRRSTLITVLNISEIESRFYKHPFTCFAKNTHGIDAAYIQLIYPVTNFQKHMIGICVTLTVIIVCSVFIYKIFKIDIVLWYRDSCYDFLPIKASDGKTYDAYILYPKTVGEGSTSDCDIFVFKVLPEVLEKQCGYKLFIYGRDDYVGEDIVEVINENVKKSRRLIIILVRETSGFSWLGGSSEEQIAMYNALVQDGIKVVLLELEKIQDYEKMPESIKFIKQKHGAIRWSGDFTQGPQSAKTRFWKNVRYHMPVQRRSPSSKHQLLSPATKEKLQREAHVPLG

Row | Substance | IL-1-like activity: IL-6 secretion by fibroblasts and endothelial cells (ELISA) (% of the activity of 0.1 nM IL-1b) | IL-6 production from fibroblasts in response to 0.1 nM IL-1b (ELISA) [% reduction]
1 | rhIL-1L1 Form B (from UniProt Q9UBH0 1-155) (ligand) | < 1 | 
2 | recombinant human IL-1 receptor antagonist (rhIL-1ra) (from UniProt P18510 28-177) (ligand) |  | 95
